What was measured:
[1] = biological target: T1, human CD3e/d (human, UniProt P07766 23-126; P04234 22-105); experiment: SPR (Carterra LSA), mAb on chip
T1 construct: Bought soluble protein; also called hCD3e/d; human CD3/ed (Sino CT038-H2508H)
Procedure, shortened: (§1)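 Purified mAbs amine-coupled (EDC/S-NHS) at 10 μg/mL in 10 mM NaOAc pH 4.25 onto an HC-30M chip, with benchmark and negative-control mAbs; analyte flowed over the array. Double-referenced sensorgrams fitted globally to a 1:1 Langmuir model for ka, kd and KD.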

[2] = biological target: T2, human CD3e/g (human, UniProt P07766 23-126; P09693 23-116); experiment: SPR (Carterra LSA), mAb on chip
T2 construct: Bought soluble protein; also called hCD3e/g; human CD3e/g (Acro CDD-C52W4)
Procedure, shortened: as §1

T1 sequence (P07766 23-126, chain 1 of 2): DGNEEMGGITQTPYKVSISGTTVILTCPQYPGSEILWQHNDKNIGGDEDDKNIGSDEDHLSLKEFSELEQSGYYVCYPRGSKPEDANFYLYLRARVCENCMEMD
T1 sequence (P04234 22-105, chain 2 of 2): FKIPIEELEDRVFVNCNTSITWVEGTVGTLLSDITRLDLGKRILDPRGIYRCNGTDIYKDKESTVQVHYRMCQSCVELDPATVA
T2 sequence (P07766 23-126, chain 1 of 2): as the sequence (P07766 23-126, chain 1 of 2) above
T2 sequence (P09693 23-116, chain 2 of 2): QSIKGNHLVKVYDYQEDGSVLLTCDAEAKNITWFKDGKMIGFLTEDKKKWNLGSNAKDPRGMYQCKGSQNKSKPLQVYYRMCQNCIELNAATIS

Binder	Kd [1]	Kd [2]
mAb 188 (antibody, V domains shown, VH and VL only) VH: QVQLVESGGGVVQPGRSLRLSCAASGFTFSGYGMHWVRQAPGKGLEWVAIIYYNGKKEYYADSVKGRFTISRDNSKNTLYLQMNSLRAEDTAVYYCTRGEGYNWFDPWGQGTLVTVSS VL: not shown	36 nM	17 nM
mAb 189 (antibody, V domains shown, VH and VL only) VH: QVQLVESGGGVVQPGRSLRLSCAASGFTFSGYGMHWVRQAPGKGLEWVAIIYYDGKNKYYADSVKGRFTISRDNSKSTLYLQMNSLGADDTAVYYCTRGKGYNWFDPWGQGTLVTVSS VL: not shown	110 nM	60 nM
mAb 204 (antibody, V domains shown, VH and VL only) VH: QVQLVESGGGVVQSGRSLRLSCAASGFTFSGYGMHWVRQAPGKGLEWVAIVYYDGKNKYYADSVKGRFTISRDNSKNTLYLQMNSLRAEDTAVYYCVRGEGYNWFDPWGQGTLVTVSS VL: EIVMTQSPATLSVSPGERATLSCRASQSVSSNLAWYQQKPGQVPRLLIYGASTRATGIPARFSGSGSGTQFTLTISSLQSEDFAVYYCQQYNNWPLTFGGGTKVEIK	200 nM	90 nM
mAb 221 (antibody, V domains shown, VH and VL only) VH: QVQLVESGGGVVQPGGSLRLSCAASGFTFSGYGMHWVRQAPGKGLEWVAIIWYNGRKTYYAESVKGRFTISRDNSKNTLSLQMNSLRVEDTAVYYCTAGQGYNWFDPWGQGTLVTVSS VL: EIVMTQSPATLSVSPGERATLSCRASQSVSSNLAWYQQKPGQAPRLLIYGASTRATGIPARFSGSGSGTEFTLTISSLQSEDFAVYYCQQFNAWPLTFGGGTKMEIK	38 nM	25 nM
mAb 217 (antibody, V domains shown, VH and VL only) VH: QVQLVESGGGVVQPGRSLRLSCAASGFTFSGYGMHWVRQAPGKGLEWVAIIYYNGKKEYYADSVKGRFTIFRDNSKNTVYLQMKSLRAEDTAVYYCTRGEGYNWFDPWGQGTLVTVSS VL: not shown	38 nM	17 nM
mAb 222 (antibody, V domains shown, VH and VL only) VH: QVQLVESGGGVVQPGRSLRLSCAASGFTFSGYGMHWVRQAPGKGLEWVAIIYYNGKKEYYADSVKGRFTISRDNSKNTVYLQMNSLRAEDTAVYYCTRGEGYNWFDPWGQGTLVTVSS VL: KIVMTQSPATLSVSPGERATLSCRASQSVSSNLAWYQQKPGQAPRLLIYGASTRATGIPARFSGSGSGTEFTLTISSLQSEDFAVYYCKQYNNWPLTFGGGTKVEIK	16 nM	8.2 nM
mAb 224 (antibody, V domains shown, VH and VL only) VH: QVQLVESGGGVVQPGRSLRLSCAASGFTFSGYGMHWVRQAPGKGLEWVAIIYYNGKKEYYADSVKGRFTISRDNSKNMLYLQMNGLRAEDTAIYYCTRGEGYNWFDPWGQGTLVTVSS VL: EIVMTQSPATLSVSPGERTTLSCRASQSVSNNLAWYQQKPGQAPRLLIYGASTRATGIPARFSGSGSGTEFTLTISSLQSEDFAVYYCQQYNNWPLTFGGGTKVEIK	39 nM	18 nM
mAb 205 (antibody, V domains shown, VH and VL only) VH: QVQLVESGGGVVQPGKSLRLSCAASGFTFSGYGMHWVRQAPGKGLEWVAIIYYNGKKEYYADSVKGRFTISRDNSKNTLYLQMNSLRAEDTAVYYCTRGEGYNWFDPWGQGTLVTVSS VL: EIVMTQSPATLSVSPGERATLSCRASQSVSSNLAWYQQKPGQAPRLLIYGASTRATGIPARFSGSGSGTEFTLTISSLQSEDFAVYYCKQYNNWPLTFGGGTKVEIK	13 nM	8.4 nM
mAb 54 (antibody, V domains shown, VH and VL only) VH: EVQLEESGGGLVQPGGSLRLSCAASGFTFSRYSMNWVRQAPGKGLEWFSYISSSSRTIYYADSVKGRFTMSRDNAKNSLYLQMNSLRDEDTAVYFCARGDYYDSEGMDVWGKGTTVTVSS VL: DIQMTQSPSTLSASVGDRVTITCRASQTITTWLAWYQQKPGKAPKLLIYKASTLESGVPSRFSGSGSGTEFTLTISSLQPDDFATYHCQQYKTFSYTFGQGTKLDIK	553 nM	83.2 nM
mAb 206 (antibody, V domains shown, VH and VL only) VH: QVQLVESGGGVVQPGRSLRLSCAASGFTFSGYGMHWVRQAPGKGLEWVAIIYYNGNNRKYADSVKGRFTISRDNSKNTVSLQMNSLRVEDTAIYYCTRGDGYNWFVTWGQGTLVTVSS VL: EIVMTQSPATLSVSPGERATLSCRASQSVSSNLAWYHQKPGQAPRLLIYGASTRATGIPVRFSGSGSGTEFTLTISSLQSEDFAVYYCQQYNNWPLTFGGGTKVEIK	73 nM	33 nM

The remaining lines, values ahead:

Kd [1]	Kd [2]	Binder
28 nM	15 nM	mAb 191 (antibody, V domains shown, VH and VL only) VH: QVQLVESGGGVVQPGRSLRLSCAASGFTFSGYGMHWVRQAPGKGLEWVAIIYYNGKKEYYADSVKGRFTISRDNSKNTLYLQMNSLRAEDTAVYYCTRGEGYNWFDPWGQGTLVTVSS VL: EIVMTQSPATLSVSPGERATLSCRASQSVSSNLAWYQQKPGQAPRLLIYGASTRATGIPARFSGSGSGTDFTLTISSLQSEHFAVYYCQQYTNWPLTFGGGTKVEIK
5.5 nM	5.7 nM	mAb 209 (antibody, V domains shown, VH and VL only) VH: QVQLVESGGGVVQPGRSLRLSCAASGFTFSGYGMHWVRQAPGKGLEWVAIIYYNGKKEYYADSVKGRFTVSRDNSKNMLYLQMNSLRAEDTAVYYCTRGEGYNWFDPWGQGTLVTVSS VL: EIVMTQSPATLSVSPGERATLSCRASQTVSSNLAWYQQKPGQAPRLLIYGASTRATGIPARFSGSGSGTEFTLTISSLQSEDFAVYYCKQYNNRPLTFGGGTKVEIK
9.3 nM	6.8 nM	mAb 216 (antibody, V domains shown, VH and VL only) VH: QVQLVESGGGVVQPGRSLRLSCAASGFTFSGYGMHWVRQAPGKGLEWVAIIYYNGKKEYYADSVKGRFTISRDNSKNTLYLQMNSLRAEDTAVYYCTRGEGYNWFDPWGQGTLVTVSS VL: EIVMTQSPATLSVSPGERATLSCRASQSVSSNLAWYQQKPGQAPRLLIYGASTRATGIPARFSGSGSGTEFTLTISSLQSEDFAVYYCKQYKNWPLTFGGGTKVEIK
17 nM	9.5 nM	mAb 203 (antibody, V domains shown, VH and VL only) VH: QVQLVESGGGVVQPGGSLRLSCAASGFTFRGYGMHWVRQAPGKGLEWVAIIYYNGRKTYYAESVKGRFTISRDNSKNTLSLQMNSLRVEDTAVYYCTAGQGYNWFDPWGQGTLVTVSS VL: EIVMTQSPATLSVSPGERATLSCRASQSVSSNLAWYQQKPGQAPRLLIYGASTRATGIPARFSGSGSGTEFTLTISSLQSEDFAVYYCQQFNAWPLTFGGGTKMEIK
28 nM	13 nM	mAb 201 (antibody, V domains shown, VH and VL only) VH: QVQLVESGGGVVQPGRSLRLSCAASGFTFSGYGMHWVRQAPGKGLEWVAIIYYNGKKEYYADSVKGRFTISRDNSKNTLYLQMNSLRAEDTAVYYCTRGEGYNWFDPWGQGTLVTVSS VL: EIVMTQSPATLSVSPGERATLSCRASQSVSSSLAWYQQKPGQAPRLLIYGASTRATGIPARFSGSGSGTEFTLTISSLQSEDFAVYYCQQYNNWPLTFGGGTKVEIK
41 nM	30 nM	mAb 198 (antibody, V domains shown, VH and VL only) VH: QVQLVESGGGVVQPGGSLRLSCAASGFTFSGYGMHWVRQAPGKGLEWVAIIWYNGRKTYYAESVKGRFTISRDNSKNTLSLQMNSLRIEDTAVYYCTTGQGYNWFDPWGQGTLVTVSS VL: EIVMTQSPATLSVSPGERATLSCRASQSVSSNLAWYQQKPGQAPRLLIYGASTRATGIPARFSGSGSGTEFTLTISSLQSEDFAVYYCQQFNAWPLTFGGGTKMEIK
9.2 nM	9.3 nM	mAb 192 (antibody, V domains shown, VH and VL only) VH: QVQLVESGGGVVQPGRSLRLSCAASGFTFSGYGMHWVRQAPGKGLEWVAIIYYNGKKEYYADSVKGRFTISRDNSKNTLYLQMNSLRAEDTAVYYCTRGEGYNWFDPWGQGILVTVSS VL: EIVMTQSPATLSVSPGERATLSCRASQSVSSNLAWYQQKPGQAPRLLIYGASTRATGIPARFSGSGSGTEFTLTISSLQSEDFAVYYCKQYKNWPLTFGGGTKVEIK
49 nM	17 nM	mAb 197 (antibody, V domains shown, VH and VL only) VH: QVQLVESGGGVVQPGGSLRLSCAASGFTFSGYGMHWVRQAPGKGLEWVAIIWYNGRKTYYAESVKGRFTISRDNSKNTLSLQMNSLRVEDTAVYYCTTGQGYNWFDPWGQGTLVTVSS VL: EIVMTQSPATLSVSPGERATLSCRASQSVSSNLAWYQQKPGQAPRLLIYGASTRATGIPARFSGSGSGTEFTLTISSLQSEDFAVYYCQQFNAWPLTFGGGTKMEIK
26 nM	29 nM	mAb 199 (antibody, V domains shown, VH and VL only) VH: QVQLVESGGGVVQPGRSLRLSCAASGFTFSGYGMHWVRQAPGKGLEWVAIIYYNGKKEYYADSVKGRFTIFRDNSKNTLYLHMNSLRAEDTAVYYCTRGEGYNWFDPWGQGTLVTVSS VL: EIVMTQSPATLSVSPGERATLSCRASQSVSRNLAWYQQKPGQAPRLLIYGASTRATGIPARFSGSGSGTEFTLTISSLQSEDFAVYYCQQYNNWPLTFGGGTKVEIK
17.1 nM	112 nM	mAb 52 (antibody, V domains shown, VH and VL only) VH: QVQLVQSGAEVKKPGASVKVSCKASGYTFTSHDINWVRQATGQGLEWMGWLNPNSGKTGYAQKFQGRVTMARDTSMYTADMELSSLRFEDTAVYYCARVGHYDMWPGFFSFDYWGQGTLVTVSS VL: DIQMTQSPSSLSASVGDRIIITCRASQDIRNDLGWYQQKPGKAPKRLIYAASSLQSGVPSRFSGSRSGTEFTLTISSLHPEDFATYYCLQHRSYPYTFGQGTNLEIK
93 nM	29 nM	mAb 193 (antibody, V domains shown, VH and VL only) VH: QVQLVESGGGVVQPGRSLRLSCAASGFTFSGYGMHWVRQAPGKGLEWVAIIYYNGNNRKYADSVKGRFTISRDNSKNTVSLQMNSLRVEDTAIYYCTRGDGYNWFVTWGQGTLVTVSS VL: EIVMTQSPATLSVSPGERATLSCRASQSVSSNLAWYHQKPGQAPRLLIYGASTRATGIPVRFSGSGSGTEFTLTISSLQSDDFAVYYCQQYNNWPLTFGGGTKVEIK
